From article doi:10.1101/2022.08.17.504309 come the findings set out here.

The assay has as its target C-type lectin domain of CD62P (P-selectin), residues 1-117, wild type (UniProt P16109). The assay can be described thus: ELISA. A general note: An ELISA detects its analyte on a solid surface through an enzyme-linked reagent.
Sequence of UniProt P16109 (P16109 42-158): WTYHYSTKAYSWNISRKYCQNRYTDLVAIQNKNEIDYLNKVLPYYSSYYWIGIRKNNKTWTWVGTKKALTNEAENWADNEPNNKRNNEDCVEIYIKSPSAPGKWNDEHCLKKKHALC

“soluble integrin αvβ3 (from UniProt P06756;P05106) (complex)”: the fold binding against the combined lectin and EGF-like domains turned out to be 2 fold.

For the substance “soluble recombinant integrin αIIbβ3 (from UniProt P08514;P05106) (complex)”, the fold binding against the combined lectin and EGF-like domains turned out to be 2 fold.
